Patent publication US20140248303A1

Key:
[1] = molecular target: 37/67 laminin receptor (LR) (Homo sapiens (Human)) (UniProt P08865); experiment: cell-based or functional assay
[2] = molecular target: 37/67 laminin receptor (LR) (Homo sapiens (Human)) (UniProt P08865); experiment: adhesion of construct-labeled latex microspheres to fixed TNF-activated RBCEC6 cells
[3] = molecular target: native CbpA of S. pneumoniae Tigr4 / T4R (on bacteria or in pneumococcal lysate) (Streptococcus pneumoniae Tigr4 strain); experiment: cell-based or functional assay
[4] = molecular target: 37/67 laminin receptor (LR) (Homo sapiens (Human)) (UniProt P08865); experiment: adhesion of labeled latex microspheres to RBCEC6 cells
[5] = molecular target: full length CbpA (CbpA-NR12) (Streptococcus pneumoniae Tigr4 strain); experiment: competitive inhibition of rCbpA-coated latex beads binding to activated RBCEC6 cells by the LR peptide

## CbpA P393G (as printed) expressed on a CbpA- S. pneumoniae strain
[1]
  adherence to endothelial cells of a CbpA- strain expressing the mutant, less than wild type CbpA: 39 % less

## CbpA-R1
[2]
  bead adherence to RBCEC6 cells, % (compared with full length CbpA-NR12 beads): 10%

## LMWWML palindromic sequence within the 161-180 laminin-binding domain (peptide)
[3]
  bacterial adhesion to activated RBCEC6 cells, % of control: 108 % of control

## full length CbpA (CbpA-NR12)
[4]
  fold binding over control thioredoxin labeled beads: 20 fold

## native CbpA of S. pneumoniae Tigr4 / T4R (on bacteria or in pneumococcal lysate)
[1]
  pneumococcal (T4R) adherence to activated RBCEC6 cells, inhibited by anti-LRP r711: 54%
  pneumococcal (T4R) adherence to activated RBCEC6 cells, inhibited by laminin: 47%
  pneumococcal (T4R) invasion of activated RBCEC6 cells, inhibited by anti-LRP r711: 31%
  pneumococcal (T4R) invasion of activated RBCEC6 cells, inhibited by laminin: 36%

## peptide corresponding to amino acids 161-180 of the laminin receptor
[5]
  adhesion of rCbpA-coated latex beads, % of control: 93 % of control

## peptide corresponding to amino acids 263-282 of the laminin receptor
[5]
  adherence of rCbpA-coated latex beads, % of control: 38 % of control
